Seven sequences from patent publication US20090239794A1, “HCV F PROTEIN AND USES THEREOF” (priority 2004, published 2009) can be followed below.

This assay concerns the target T1, HLA-A*0201 (Homo sapiens, UniProt P04439, D140Y/D185E/D98H/E176V/E277Q/G131W/G231S/I119V/I121R/I166T/I218V/L300P/L318F/N151K/N90K/P208A/P217A/Q86G/Q94H/R138H/R169H/T345S).
T1 construct: rescue cell-surface expression of CMH-I molecule HLA-A2 in the TAP peptide transporter-deficient cell line T2; endogenous in cells; host or cells: T2 cells (TAP-deficient)
Description: T2 peptide binding assay. It counts as cell-based. The settings on record: for dose-response of MHC class I (HLA-A2) expression at the surface of T2 cells: 30, 100, 200 μg/ml; for A2 binding / Peak fluorescence, % of the levels obtained with NS3 1406-1415 / initial screening of the overlapping peptide panel for HLA-A*0201 expression at the cell surface: T2 cells; for A2 binding: dose-dependent increase of HLA-A2 surface expression; for Peak fluorescence, % of the levels obtained with NS3 1406-1415: MHC class I staining with W6/32; for initial screening of the overlapping peptide panel for HLA-A*0201 expression at the cell surface: 200 μg/ml. The protocol:
37 overlapping peptides (15 amino acid residues with […]) derived from F protein and 5 additional 15-mer peptides corresponding to alternative N-terminal frameshift products of the core protein sequence were synthesized using Fmoc chemistry (SynPep, Dublin, Calif.) based on the sequence of HCV-1a F protein (GenBank accession n° M62321), and were resolubilized in 25% w/v dimethyl sulfoxyde (DMSO) in 1×HBSS. Peptides were diluted to 30, 100, and 200 μg/ml final concentration in DMEM supplemented with 3% w/v FBS, and were incubated with 100,000 serum-depleted (3% FBS for 24 h) T2 cells for 16 h at 37° C. in 5% CO2. T2 cells were then stained (30 min at room temperature) for MHC class I molecules using fluorescein isothiocyanate (FITC)-conjugated W6/32 monoclonal antibody (Sigma, Saint Louis, Mo.) and were analyzed on a FACSCalibur™ flow cytometer (Becton-Dickinson Immunocytometry Systems, La Jolla, Calif.) with live gating based on forward and side scatter.
Interaction of antigenic peptides with class I major histocompatibility complex (MHC) molecules is a prerequisite for their recognition by host cytotoxic T lymphocytes (CTL). The T2 binding assay was therefore performed, in which exogenously-supplied peptides are assessed for their ability to rescue cell-surface expression of CMH-I molecule HLA-A2 in the TAP peptide transporter-deficient cell line T2 [25].
Forty-two overlapping 15-mer peptides corresponding to HCV-1a F protein sequence were tested for interaction with HLA-A*0201 molecules using the T2 peptide binding assay. Specifically, thirty-seven overlapping peptides (15 amino acid residues with 11 residues overlaps) derived from F protein and 5 additional 15-mer peptides corresponding to alternative N-terminal frameshift products of the core protein sequence were synthesized using Fmoc chemistry based on the sequence of HCV-1a ARFP (GenBank accession n° M62321), and peptide binding was assessed as described in Example 1. […] Mean fluorescence intensity following class I MHC staining by the W6/32 monoclonal antibody was used as the readout. The threshold level was set using no peptide controls (hatched lines in FIGS. 4 and 5).

Turning to “AGAPQTPGV (Hepatitis C virus) [F107-115]”, the “dose-response of MHC class I (HLA-A2) expression at the surface of T2 cells” value (“dose-response of MHC class I” for short) is recorded as “dose-dependent capacity to rescue A2 expression” and the A2 binding result is “+”.

“ALGLAGAPQT (Hepatitis C virus) [F103-112]”: the “dose-response of MHC class I” value is reported as “unable to rescue HLA-A2 expression”.

On to “CCRAGALDWVCARRE (Hepatitis C virus) [F37-51]”, for which the “dose-response of MHC class I” value is given as “dose-dependent increase”; the “Peak fluorescence, % of the levels obtained with NS3 1406-1415” value (shortened to “Peak fluorescence, %”) was determined as 79.2%; the “initial screening of the overlapping peptide panel for HLA-A*0201 expression at the cell surface” value (from here on “initial screening”) is listed as “high binders”; the A2 binding entry is “+”.

For the sequence “KLVALGINAV [NS3 1406, reference compound]”, the A2 binding result is “+”.

Regarding “PVALGLAGAPQTPGV (Hepatitis C virus) [F101-115]”, the “dose-response of MHC class I” value was “dose-dependent increase”; the “Peak fluorescence, %” value is recorded as 83.2%; the “initial screening” value is recorded as “high binders”; the A2 binding entry is “+”.

With SLVEFTCCRA (Hepatitis C virus) [F31-40], the “dose-response of MHC class I” value is on record as “dose-dependent increase” and the A2 binding entry was “+”.

As for “VRSLVEFTCCRAGAL (Hepatitis C virus) [F29-43, 15-mer of HCV-1a F protein]”, the “dose-response of MHC class I” value was “dose-dependent increase”; the “Peak fluorescence, %” value is recorded as 87.6%; the “initial screening” value was “high binders”; the A2 binding entry is reported as “+”.
